In article PMC9404787, “The Peptide Methionine Sulfoxide Reductase (MsrAB) of Haemophilus influenzae Repairs Oxidatively Damaged Outer Membrane and Periplasmic Proteins Involved in Nutrient Acquisition and Virulence” (Antioxidants, 2022):

Experiments:
Experiment in all cases: purified protein
Cc1ccc([S+](C)[O-])cc1 = conditions: 20 uM rTrx, 5 uM rTrxR, 0.2 mM NADPH, 50 mM sodium phosphate pH 7.5, 37 °C, racemate, both domains
Cc1ccc([S@+](C)[O-])cc1 = conditions: 20 uM rTrx, 5 uM rTrxR, 0.2 mM NADPH, 50 mM sodium phosphate pH 7.5, 37 °C, MsrA domain
Cc1ccc([S@@+](C)[O-])cc1 = conditions: 20 uM rTrx, 5 uM rTrxR, 0.2 mM NADPH, 50 mM sodium phosphate pH 7.5, 37 °C, MsrB domain

Question: Which results are given for rMsrAB (Haemophilus influenzae Rd KW20)?
Answer: Km (Cc1ccc([S+](C)[O-])cc1): 2960 ± 440 µM; Vmax (Cc1ccc([S+](C)[O-])cc1): 0.34 µmol/min/mg; kcat (Cc1ccc([S+](C)[O-])cc1): 0.204 ± 0.06 s⁻¹; kcat/Km (Cc1ccc([S+](C)[O-])cc1): 68.9 M⁻¹ s⁻¹; Km (Cc1ccc([S@+](C)[O-])cc1): 3620 ± 550 µM; Vmax (Cc1ccc([S@+](C)[O-])cc1): 0.52 µmol/min/mg; kcat (Cc1ccc([S@+](C)[O-])cc1): 0.312 ± 0.12 s⁻¹; kcat/Km (Cc1ccc([S@+](C)[O-])cc1): 86.1 M⁻¹ s⁻¹; Km (Cc1ccc([S@@+](C)[O-])cc1): 2310 ± 350 µM; Vmax (Cc1ccc([S@@+](C)[O-])cc1): 0.26 µmol/min/mg; kcat (Cc1ccc([S@@+](C)[O-])cc1): 0.156 ± 0.06 s⁻¹; kcat/Km (Cc1ccc([S@@+](C)[O-])cc1): 67.5 M⁻¹ s⁻¹
